Sequences and labels used below:
B1: S1–8 (VHH)
VHH: QVQLVESGGGLVQAGGSLRLSCAASGRVLSSYVMGWFRQAPGKEREFVAAIRWNGGSTFYADSVKGRLTISRDNAKNTVYLQMNSLKPEDTAAYYCAASPRTMYDATYYYSRTSYDYWGQGTQVTVS
B2: LaG43 (VHH)
VHH: DVQLVESGGGLVQPGGSLRLSCEASGGAFSTVAMGWFRQAPGKEREFVGAITWTAGSTYYADSAKGRFTISRDNAKNTVHLQMNSLKPEDTAVYYCAQRVRGFFGPLRTTPSWYEYWGQGTQVTVSG
B3: LaG16 (VHH)
VHH: QVQLVESGGRLVQAGDSLRLSCAASGRTFSTSAMAWFRQAPGREREFVAAITWTVGNTILGDSVKGRFTISRDRAKNTVDLQMDNLEPEDTAVYYCSARSRGYVLSVLRSVDSYDYWGQGTQVTVSG
B4: LaG41 (VHH)
VHH: DVQLVESGGGLVQAGGSLRLSCAASGPTGAMAWFRQAPGKEREFVGGISGSETDTYYVDSVKGRFTVDRDNVKNTVYLQMNSLKPEDTAVYYCAARRRITLFTSRTDYDFWGRGTQVTVGL
B5: LaG21_(L69F) (VHH)
VHH: QVQLVESGGGLVQAGGSLRLSCAASGPTGAMAWFRQAPGMEREFVGGISGSETDTYYADFVKGRFTVDRDNVKNTVDLQMNSLKPEDTAVYYCAARRRVTLFTSRADYDFWGQGTQVTVSG
B6: LaG19_(S102R) (VHH)
VHH: QVQLVESGGGLVQAGGSLRLSCAASGPTGAMAWFRQAPGKEREFVGGISRSGTDTYYVDSVKGRFTIDRDNAKNTVYLQMNSLKPEDTAVYYCAARRRQILFTSRTDYEFWGQGTQVTVSG
B7: LaG24_(Q68K) (VHH)
VHH: DVQLVESGGGLVQPGGSLRLSCAASGEIASIIAIGWYRQAPGKQRESVALITRSGMITYGDSAKGRFTISRDDAKNTVYLHMDDLVPEDTAVYYCNAKKVSFGDYWGQGTQVTVSG
B8: LaG24_(H85Q) (VHH)
VHH: DVQLVESGGGLVQPGGSLRLSCAASGEIASIIAIGWYRQAPGKQRESVALITRSGMITYGDSAQGRFTISRDDAKNTVYLQMDDLVPEDTAVYYCNAKKVSFGDYWGQGTQVTVSG
B9: LaG21 (VHH)
VHH: QVQLVESGGGLVQAGGSLRLSCAASGPTGAMAWFRQAPGMEREFVGGISGSETDTYYADFVKGRLTVDRDNVKNTVDLQMNSLKPEDTAVYYCAARRRVTLFTSRADYDFWGQGTQVTVSG

Bounds are passed on as bounds.

For one test, the target named is SARS-CoV-2 spike S1 (SARS-CoV-2, wild type (Wuhan-Hu-1), UniProt P0DTC2). Description: SPR. Background: SPR reads the build-up and loss of mass on a sensor chip optically.
Usually Kd stands for the concentration at which binding is half-saturated. High values mean weaker binding, low ones tighter binding. B1 yielded a Kd of 3.8 nM.

The target in another test is Green Fluorescent Protein (Aequorea victoria, laboratory variant …). The test can be described thus: SPR.
In turn, B2 had a Kd of 11 nM. That is a double-digit nanomolar value.

B3 came in with a Kd of 0.7 nM.

B4 displayed a Kd of 0.9 nM. This Kd and that of the molecule before are within 1.5-fold of each other.

In turn, B5 displayed a Kd of 0.7 nM.

As for B6, the Kd turned out to be 0.6 nM.

In the case of B7, the “fold increase in affinity over wildtype LaG24” value is ~10 fold.

B8: the “fold increase in affinity over wildtype LaG24” value was > 10 fold.

B9 displayed a Kd of 7 nM.

The record behind these values is PMC12042621 (Structure (London, England : 1993), 2025).
